{
  "source": "patent US20170145472",
  "biological_target": "T1, HCV NS3 helicase (Hepatitis C virus) (UniProt P26663)",
  "T1 sequence": "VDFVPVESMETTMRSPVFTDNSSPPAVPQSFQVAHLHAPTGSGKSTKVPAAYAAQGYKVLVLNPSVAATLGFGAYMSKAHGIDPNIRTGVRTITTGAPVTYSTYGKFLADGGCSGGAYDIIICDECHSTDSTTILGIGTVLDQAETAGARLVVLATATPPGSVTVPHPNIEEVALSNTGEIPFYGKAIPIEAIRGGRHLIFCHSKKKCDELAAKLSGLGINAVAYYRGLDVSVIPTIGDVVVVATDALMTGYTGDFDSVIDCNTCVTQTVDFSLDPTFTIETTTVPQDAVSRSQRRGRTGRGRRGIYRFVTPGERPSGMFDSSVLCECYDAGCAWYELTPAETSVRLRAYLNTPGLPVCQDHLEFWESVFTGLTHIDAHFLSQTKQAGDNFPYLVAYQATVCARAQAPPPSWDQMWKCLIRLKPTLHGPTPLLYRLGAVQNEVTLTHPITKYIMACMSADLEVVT",
  "data": [
    {"sequence": "GTGGGTAGGGCGGGTTGGTGGCGACGGCAGCGAGGCAGAGGAGCAGAGGGAGCA / GCCTCGCTGCCGTCGCCACCAACCCGCCC [ON1/ON2 duplex substrate]", "values": [
      {"measurement": "activity (fold luminescence enhancement)", "result": 4.5}
    ]}
  ]
}
